Values quoted from earlier work as cited in paper PMC9691366, “Modulating the pharmacokinetic profile of Actinium-225-labeled macropa-derived radioconjugates by dual targeting of PSMA and albumin” (Theranostics, 2022).

Test system: tumor
Conditions: in vivo, 24 h; cited from earlier work

Substance: [^177Lu]Lu-PSMA-617
- tumor uptake: 11.20 ± 4.17 %ID/g
